Data as given in PMC9418005 (Nature Microbiology, 2022).

Target: original 2019-nCoV RBD protein (SARS-CoV-2, UniProt P0DTC2)
Assay: Luminex bead-based competitive binding assay
Settings: both partners purified

B1: P2G3 LS human IgG1 monoclonal antibody (antibody, V domains shown)
VH: EVQLVESGGGLVQPGRSLRLSCAASGFRFDDYALHWVRQAPEKGLEWVSGISWNSNNIGYAESVKGRFTISRDTAKKSLYLQMNDLRAEDTALYYCVKDRHYDSSGYFVNGFDIWGQGTLVTVSA
VL: DIQLTQSPSFLSASVGDRVTVTCRASQGISSYVAWYQQKAGKAPTLLIYTASTLQSGVPSRFSGSGSGTEFTLTISSLQPEDFATYYCQQLHSYPVTFGQGTRLDIE
Question: Does B1 bind?
Answer: binds

B2: P5C3 LS monoclonal antibody (antibody, V domains shown)
VH: QMQLVQSGPEVKKPGTSVKVSCKASGFTFTSSAVQWVRQARGQRLEWIGWIVVGSGNTDYAQQFQERVTITRDMSTSTAYMELSSLGSEDTAVYYCAAPNCSGGSCYDGFDLWGQGTMVTVSS
VL: EIVLTQSPGTLSLSPGERATLSCRGSQSVRSSYLGWYQQKPGQAPRLLIYGASSRATGIPDRFSGSGSGTDFTLTISRLEPEDFAVYYCQQYGSSPWTFGQGTKVEIK
Question: Does B2 bind?
Answer: binds
